Biological target: the molecule itself
Assay: native gel, in-gel butyrylcholinesterase activity staining of mouse serum (self-association: dimer, tetramer)

B1: human butyrylcholinesterase (hBChE) expressed from AAV8.UbC.hIL2.BChE C1.IRES.PRIMA1.SV40 vector (enzyme)
chain: HTEDDIIIATKNGKVRGMNLTVFGGTVTAFLGIPYAQPPLGRLRFKKPQSLTKWSDIWNATKYANSCCQNIDQSFPGFHGSEMWNPNTDLSEDCLYLNVWIPAPKPKNATVLIWIYGGGFQTGTSSLHVYDGKFLARVERVIVVSMNYRVGALGFLALPGNPEAPGNMGLFDQQLALQWVQKNIAAFGGNPKSVTLFGESAGAASVSLHLLSPGSHSLFTRAILQSGSFNAPWAVTSLYEARNRTLNLAKLTGCSRENETEIIKCLRNKDPQEILLNEAFVVPYGTPLSVNFGPTVDGDFLTDMPDILLELGQFKKTQILVGVNKDEGTAFLVYGAPGFSKDNNSIITRKEFQEGLKIFFPGVSEFGKESILFHYTDWVDDQRPENYREALGDVVGDYNFICPALEFTKKFSEWGNNAFFYYFEHRSSKLPWPEWMGVMHGYEIEFVFGLPLERRDNYTKAEEILSRSIVKRWANFAKYGNPNETQNNSTSWPVFKSTEQKYLTLNTESTRIMTKLRAQQCRFWTSFFPKVLEMTGNIDEAEWEWKAGFHRWNNYMMDWKNQFNDYTSKKESCVGL
notes: Secreted into the serum of vector-injected RAG KO mice; also called hBuChE; Hu BChE
binding result: binds

— US20190144884A1 (University of Pennsylvania, published 2019)
